Test results as given in the supplement of paper PMC12042874.
± gives the uncertainty stated by the source.

Test: amyloid nucleation score (Sup35N fusion, yeast selection) (log enrichment); library NNK2; higher = more nucleation; inactive = no reads after selection
Outline: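 In psi-negative yeast, Sup35N fusions carrying peptides of 20 random codons were induced with 100 μM copper sulfate for 24 hours. The cells then grew 7 days at 30°C on medium lacking adenine and uracil, and plasmid inserts from input and output were Illumina-sequenced, excluding sequences with under 100 input reads. Nucleation score is the DiMSum log enrichment of output over input reads, centred on the mode score of non-aggregating sequences.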

| Substance | amyloid nucleation score |
| --- | --- |
| FYQVNLPSCLNSDDNRCS | inactive |
| FYRGM | -0.547 ± 0.5 |
| FYRGSQVMPR | -0.647 ± 1.1 |
| FYSCCPWLSLRSAMIYVMIS | 1.61 ± 0.22 |
| FYSLTDPCICGCH | -0.341 ± 0.79 |
| FYTTRMYLVFSYFV | 3.29 ± 0.064 |
| FYWAKPSHWAPGFINGQDVL | -1.19 ± 0.54 |
| FYYNCGWSCNNVTWFSRQFV | 3.04 ± 0.12 |
| FYYVFYLNSLAVAGHLRILD | inactive |
| GAGHNNLLEDAFTSRSVTAR | 0.489 ± 0.28 |
| GAIRFK | 0.223 ± 0.54 |
| GAKIGKMDVLGFDGDGLIYI | 1.42 ± 0.1 |
| GASVVDKSSRPCGAILEHSG | 0.894 ± 0.74 |
| GAWFQTYWLWCEYMAFIQKL | 1.86 ± 0.17 |
| GCHSFLPGYFTWNYDSDNYF | inactive |
| GCMLSRMNTGLSRLGLFFDS | -1.25 ± 0.55 |
| GCTGGRIK | -0.088 ± 0.49 |
| GCVRIMPCVFGSVRWHWYVW | 1.28 ± 0.25 |
| GDDDVVVDDQNLKCDGYTDL | 1.03 ± 0.24 |
| GDKSIRSPLAV | -0.087 ± 0.34 |
| GDVCNVLLAYWVFVTLSFSV | 1.5 ± 0.58 |
| GDVDEWCLTGLGLSNIMVGQ | 1.52 ± 0.58 |
| GDYSCVHQVRKIDM | 0.162 ± 0.18 |
| GEGQNEVATHLYCQLAILPV | 0.28 ± 0.46 |
| GEKTVLVYMVG | 4.9 ± 0.07 |

| Substance | amyloid nucleation score |
| --- | --- |
| GENTRSINVSSGMQEQSRKT | 0.523 ± 0.38 |
| GEQVWCVGCPYVRWNSLHAG | 8.756 ± 0.037 |
| GESEVLSRRRQFFGRLWVCM | inactive |
| GETVGFKARFMLMHTSFLLR | 4.902 ± 0.045 |
| GFEWSLSRIDLCSGFGLGAG | 1.24 ± 0.29 |
| GFHQFPVDVVALGWSILRCF | -0.075 ± 0.31 |
| GFLLCVSGVYLGCLLVNSSI | 0.488 ± 0.56 |
| GFLYR | -1.23 ± 0.3 |
| GFMKPSRYLNMVKFNCRLRS | inactive |
| GFNGRALKLERARDLVCGRM | 0.386 ± 0.29 |
| GFSIVNQDWYS | 0.675 ± 0.35 |
| GFSSHSSFNHTI | 1.37 ± 0.32 |
| GFVYYSVMVFLMLAFPYLRH | -1.59 ± 0.64 |
| GGALGDFGTHEFNLNAPYSQ | inactive |
| GGDAQACVGHLSHKLCWLSV | 1.65 ± 0.16 |
| GGDAYGRINAASYARIPRLS | 0.902 ± 0.22 |
| GGFDYCFIMYHRNELDSGLG | -0.646 ± 0.23 |
| GGIRYVSVFQIFASCCFSRV | 8.977 ± 0.05 |
| GGLAGWSGWNTQDELGCGTT | 0.775 ± 0.4 |
| GGMGHVFITCWGYVYIDYLV | 7.207 ± 0.025 |
| GGNTVSHQK | -0.427 ± 1.1 |
| GGRMHCARRTRMWVHLDAGM | 5.823 ± 0.049 |
| GGRRCGFITIRETNRTLLAL | -0.28 ± 0.55 |
| GGTIYTLL | -1.01 ± 0.36 |
| GGTNYANLMLALWFVVMIST | -0.295 ± 0.44 |

| Substance | amyloid nucleation score |
| --- | --- |
| GGTSAAS | 1.01 ± 0.22 |
| GGWLYANGEYWWSTG | 1.53 ± 0.58 |
| GGYDGVSQMCHFEITWNWMT | 1.37 ± 0.29 |
| GGYDP | inactive |
| GGYICFQMFFYCVFARNY | 1.27 ± 0.082 |
| GHIQLRTVYGV | 1.2 ± 0.68 |
| GHLRVFGVAKKLSTIMNLAR | -0.274 ± 0.45 |
| GHMLLFTFFR | 5.965 ± 0.035 |
| GHRNTDRSRREDRTKW | 4.82 ± 0.05 |
| GHSSFDQTAFSDSAGSLRML | inactive |
| GICPWTRLALFCRSGNVYRG | 1.34 ± 0.15 |
| GIFISISPPIGESSGNLQLN | inactive |
| GIIDV | -0.441 ± 1.1 |
| GILVRRYAWSELMNGED | 0.116 ± 0.49 |
| GIRVLRTRYSLELCMRCLLW | 0.126 ± 0.26 |
| GISLGDNIRFYLDCTAAPGA | -0.648 ± 0.42 |
| GITYVVHSTRGTYREPEGPW | 0.469 ± 0.65 |
| GKCRRPMCGGKFGDQGLLRL | 3.27 ± 0.11 |
| GKFVLFRMMFNLVNYRSVLQ | -0.731 ± 0.25 |
| GKGNLQSCYEWKYKKLYVHT | -0.248 ± 0.38 |
| GKIRIENGLRGSLGDIRHNI | -0.623 ± 1 |
| GKLLLFSSWGRA | 0.083 ± 0.44 |
| GKNELYQVS | 0.774 ± 0.41 |
| GKPNGGYSTAK | 0.777 ± 0.4 |
| GKQTP | -0.711 ± 0.45 |

| Substance | amyloid nucleation score |
| --- | --- |
| GKRLSAFWQVVRSWLHIGGM | 5.176 ± 0.035 |
| GKVAAGVIGRYTY | -0.477 ± 0.22 |
| GLDCIVSINRVQLTSAGLIE | 0.382 ± 0.47 |
| GLDITIGEA | -0.522 ± 0.63 |
| GLEFFLGYGYIAARHWVSGS | 1.59 ± 0.13 |
| GLIGSERNSRVWRNYQMSCS | 2.99 ± 0.11 |
| GLIYIRDFSFREKGGCYQGL | -1.29 ± 1.1 |
| GLPRMRSRYTYRGKYVCMCM | 1.12 ± 0.36 |
| GLRSLVHEARCRYKTSTSVK | -0.939 ± 0.55 |
| GLSCVFRMRIE | 6.266 ± 0.05 |
| GLSNLTYDFFPEKPP | -1.45 ± 0.62 |
| GLSQILDDVGWICRVFELQR | 0.299 ± 0.37 |
| GLSRLTRYNNGNITTHSNWH | -0.074 ± 1.1 |
| GLTGRPQRLIVWAYDLERLW | -0.09 ± 0.63 |
| GLVGEGRACYVKHD | 0.861 ± 0.57 |
| GMADWNWFFPILFDPMGTGL | -0.357 ± 0.49 |
| GMCYGGKFDY | -0.356 ± 0.33 |
| GMGSSRGQRSTYYYGDLAYA | 0.96 ± 0.21 |
| GMICKWAWVSTGGKGVKCRE | 0.272 ± 0.43 |
| GMKSFR | -1.68 ± 1.1 |
| GMLFRWCG | 7.56 ± 0.047 |
| GMLVELHYGPMY | 0.334 ± 0.56 |
| GMPFG | 0.044 ± 0.28 |
| GMPVLV | 0.093 ± 0.26 |
| GMRGNSYAVSYRDIVVLAPC | -0.007 ± 0.55 |

| Substance | amyloid nucleation score |
| --- | --- |
| GMRIFNYKNRDYWMACTAMT | inactive |
| GMRVMVLFDFLYYRCLENLL | -0.632 ± 1.1 |
| GMSITPWHWFGPCISFPDIN | -0.55 ± 0.53 |
| GMVAICFYHM | 6.05 ± 0.046 |
| GMYLVENLLFRAQCRSTHWQ | 1.25 ± 0.37 |
| GNCPLMPMKFRNRMSHSAFS | 0.517 ± 0.4 |
| GNGLFSVFYIFYAAGKRSVC | 0.394 ± 0.62 |
| GNLLLSVITDQL | 4.69 ± 0.072 |
| GNMISERSKSSVHN | -1.52 ± 1.1 |
| GNSIVENFLCSRHQCYVM | 8.598 ± 0.046 |
| GNTLGRFMVLHT | -0.199 ± 0.8 |
| GNVVMN | 0.863 ± 0.18 |
| GNWSVDGWQYCNRTHKCSYH | 2.41 ± 0.059 |
| GPFNNRRGQFYSVCIYFLLR | inactive |
| GPRSPAA | 0.613 ± 0.34 |
| GPSLDLDNVDYIGDSTTYQL | inactive |
| GPVLGEFVEGSGNANGDEQV | -0.107 ± 1 |
| GPYFVNYPLKTNSIVLWELA | 0.356 ± 0.8 |
| GQDITDTFTLNCSRGFTCIR | 0.091 ± 0.34 |
| GQLGNCLVSAAFLFAFIVLS | 4.33 ± 0.075 |
| GQSLLLEPSGWVSSDIKMKG | 0.153 ± 0.79 |
| GQTLTRRKVKGRQRELTSGQ | 0.967 ± 0.36 |
| GQVRSFCTGEG | -0.677 ± 1 |
| GREVHALPHEGMVDRSGRGT | 1.29 ± 0.16 |
| GRIVVFV | 0.538 ± 0.39 |

| Substance | amyloid nucleation score |
| --- | --- |
| GRKLNFGQAFLWLYQVCWFM | inactive |
| GRMNTLDTFLTMAISDDASF | -0.147 ± 0.46 |
| GRRFLYKPAKTWYVVWHRGL | 0.229 ± 0.49 |
| GRVFIASLIARTDPPKLVFK | 1.67 ± 0.083 |
| GRWSRF | 0.446 ± 0.64 |
| GSCSKCNWCINKTAQGFVLS | -0.062 ± 0.45 |
| GSFMYSREVRLRYALARSFE | -0.545 ± 0.41 |
| GSHLSSSFTKWMGIPAMVFR | -0.134 ± 0.54 |
| GSKTRFF | inactive |
| GSSGFGRVLTGIYKCYTYWE | inactive |
| GSSRLCRQYAVNFFDCHMYD | 4.78 ± 0.056 |
| GSSTMWNVLVAWLRTIL | inactive |
| GSVFSKHQGSFVFSLQQLGL | -1.43 ± 0.34 |
| GSVHANKD | -0.299 ± 0.63 |
| GSVRTDVLSPRFGGTGHLVN | -0.116 ± 0.54 |
| GSVTRGVRRAY | 4.73 ± 0.06 |
| GSVYKCLGSWVIYRFIFSWV | 1.19 ± 0.66 |
| GSYPGRLFTCVKMGVT | 0.363 ± 0.65 |
| GSYVDEVSIYPDEACSYRLA | -0.187 ± 0.76 |
| GTAYAHFFEVNFTSKLLAEF | 1.76 ± 0.18 |
| GTHPCLQVCDDRGDWLLA | 0.868 ± 0.29 |
| GTIFMRALKNAVYASSRALI | -0.247 ± 0.54 |
| GTLWLGDAGRAEN | 0.589 ± 0.39 |
| GTRDHGELGLLFTTTLLFVE | 1.39 ± 0.13 |
| GTTCDIEDVPCMLVVDTLLV | 1.42 ± 0.16 |

| Substance | amyloid nucleation score |
| --- | --- |
| GTVFCYLM | -1.05 ± 1 |
| GVFLGALCVFTSCLSELWMC | -1.49 ± 0.78 |
| GVHLYLNVYVTLKFTATGDS | 5.79 ± 0.077 |
| GVKSFGVFGSMYWILMFSKA | -0.495 ± 0.48 |
| GVRAGACLGNGSVYSSGGRF | inactive |
| GVSWTFFGEYFQPCSSMKVN | -0.538 ± 0.46 |
| GVTFNADASTFRDACMARLG | 0.752 ± 0.48 |
| GVTFSSMLRPFSAIAKRLVV | 0.733 ± 0.56 |
| GVTSCLRRPWFKYVILSPRP | 1.44 ± 0.21 |
| GVVPQGMMTI | -0.701 ± 0.55 |
| GWFFDFFITCPVSHSTFSKL | 2.19 ± 0.14 |
| GWMHFVALKGFSNHGRAGSG | 0.448 ± 0.57 |
| GWQGISAVSRGTGCWLEGTG | 0.649 ± 0.34 |
| GWRFL | -1.17 ± 0.54 |
| GWSYNLSETLKQSVESVLTS | 1.42 ± 0.44 |
| GWVVRRINAVVFVASGSI | 5.601 ± 0.048 |
| GYCKVGCFHLRYGSACCVRM | 0.511 ± 0.41 |
| GYGVAWLYGISDSVRLRAPY | 0.335 ± 0.42 |
| GYINEYCCHLRVNGLLRAPG | -0.315 ± 0.5 |
| GYINWSCDRDMFSRTTDFLG | -0.592 ± 0.34 |
